Measurements from PMC2701625 (Biochemistry, 2009).

Target: the molecule itself
Test: cross-linking

B1: GST-hHsp90-N520 (GST tagged human hsp90β truncation, residues 520-724) (domain or fragment)
chain: not shown
  stoichiometry N: 4
